Experimental data published in patent US20240383984A1 (Genentech, published 2024).

Tests used:
[1] = target: truncated FcRH5 (deletion of amino acids 1-744) with N-terminal gD tag, on cells (human) (UniProt Q96RD9); assay: cell-based or functional assay
[2] = target: T1, human FcRH5 protein fragment (soluble) (human, UniProt Q96RD9 16-851); assay: SPR (BIACORE), antibody as ligand, HuFcRH5 as sample in stepwise injections, 25 °C, 1:1 binding model
T1 construct: whole entry named; also called soluble human FcRH5; Human FcRH5 (BIACORE analyte)
T1 sequence: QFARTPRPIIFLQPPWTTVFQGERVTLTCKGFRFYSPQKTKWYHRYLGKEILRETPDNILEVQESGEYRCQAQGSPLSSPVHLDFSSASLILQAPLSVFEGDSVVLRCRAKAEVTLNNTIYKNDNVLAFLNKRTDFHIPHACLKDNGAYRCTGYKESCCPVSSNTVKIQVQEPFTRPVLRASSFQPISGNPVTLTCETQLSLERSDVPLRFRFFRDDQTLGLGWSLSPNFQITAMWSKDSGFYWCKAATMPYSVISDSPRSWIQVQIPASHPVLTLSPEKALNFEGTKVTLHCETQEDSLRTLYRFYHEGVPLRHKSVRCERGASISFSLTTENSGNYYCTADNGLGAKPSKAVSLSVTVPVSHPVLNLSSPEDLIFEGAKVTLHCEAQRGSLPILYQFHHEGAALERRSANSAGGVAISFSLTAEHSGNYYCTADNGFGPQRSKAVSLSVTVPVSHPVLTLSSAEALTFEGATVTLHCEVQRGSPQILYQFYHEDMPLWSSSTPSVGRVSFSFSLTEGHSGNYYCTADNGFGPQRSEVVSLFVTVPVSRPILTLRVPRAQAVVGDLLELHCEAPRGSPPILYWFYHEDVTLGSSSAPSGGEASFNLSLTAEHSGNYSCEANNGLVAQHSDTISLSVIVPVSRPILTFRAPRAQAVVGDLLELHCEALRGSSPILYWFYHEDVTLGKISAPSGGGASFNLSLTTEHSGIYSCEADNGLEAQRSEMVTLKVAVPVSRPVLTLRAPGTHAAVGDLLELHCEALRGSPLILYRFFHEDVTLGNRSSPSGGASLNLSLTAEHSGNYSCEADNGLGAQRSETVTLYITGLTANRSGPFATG

[3] = target: T2, human CD3ε (human, UniProt P07766 23-126, limits assumed); assay: BIACORE and Scatchard, monovalent
T2 construct: also called hCD3ε
T2 sequence (P07766 23-126 limits assumed): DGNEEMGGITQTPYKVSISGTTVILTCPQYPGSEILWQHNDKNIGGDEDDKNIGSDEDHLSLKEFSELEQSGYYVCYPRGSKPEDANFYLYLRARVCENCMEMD

[4] = target: T2, human CD3ε; assay: ELISA on CD3
[5] = target: T1, human FcRH5 protein fragment (soluble); assay: ELISA on FcRH5 (form of the coated FcRH5 not given)
[6] = target: T2, human CD3ε; assay: assay not stated
[7] = target: T2, human CD3ε; assay: BIACORE, monovalent
[8] = target: T1, human FcRH5 protein fragment (soluble); assay: SPR screening
[9] = target: T1, human FcRH5 protein fragment (soluble); assay: BIACORE
[10] = target: T3, cynomolgus FcRH5 protein fragment (soluble) (cynomolgus monkey); assay: BIACORE
T3 construct: whole entry named; also called Cyno FcRH5 (BIACORE analyte)
T3 chain: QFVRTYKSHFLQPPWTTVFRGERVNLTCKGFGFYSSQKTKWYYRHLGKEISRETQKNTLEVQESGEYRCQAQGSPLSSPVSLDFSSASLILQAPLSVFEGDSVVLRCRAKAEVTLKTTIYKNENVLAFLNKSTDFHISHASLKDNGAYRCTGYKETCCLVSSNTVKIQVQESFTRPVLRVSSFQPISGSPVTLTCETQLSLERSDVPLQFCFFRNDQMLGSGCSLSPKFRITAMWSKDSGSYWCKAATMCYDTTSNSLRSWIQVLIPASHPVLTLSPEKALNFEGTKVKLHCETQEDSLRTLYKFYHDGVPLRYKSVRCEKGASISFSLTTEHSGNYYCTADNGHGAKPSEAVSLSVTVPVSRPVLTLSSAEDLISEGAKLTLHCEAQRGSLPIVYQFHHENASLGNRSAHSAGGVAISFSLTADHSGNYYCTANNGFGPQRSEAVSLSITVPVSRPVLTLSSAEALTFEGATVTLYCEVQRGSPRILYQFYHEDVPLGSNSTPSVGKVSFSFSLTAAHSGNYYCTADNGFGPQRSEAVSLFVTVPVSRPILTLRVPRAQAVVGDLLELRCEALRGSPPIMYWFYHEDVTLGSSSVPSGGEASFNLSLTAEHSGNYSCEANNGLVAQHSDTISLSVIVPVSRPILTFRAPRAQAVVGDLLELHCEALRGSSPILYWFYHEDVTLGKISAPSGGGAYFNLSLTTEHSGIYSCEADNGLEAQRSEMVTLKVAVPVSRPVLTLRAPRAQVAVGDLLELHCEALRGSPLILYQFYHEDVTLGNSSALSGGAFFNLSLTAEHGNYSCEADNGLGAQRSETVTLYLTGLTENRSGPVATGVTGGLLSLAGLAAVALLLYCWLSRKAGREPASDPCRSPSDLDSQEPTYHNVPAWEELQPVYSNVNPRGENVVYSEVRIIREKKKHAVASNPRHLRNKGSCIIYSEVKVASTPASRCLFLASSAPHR

[11] = target: T3, cynomolgus FcRH5 protein fragment …; assay: SPR (BIACORE), Cyno FcRH5, 1:1 binding model
[12] = target: T1, human FcRH5 protein fragment (soluble); assay: SPR (BIACORE), Human FcRH5, 1:1 binding model

anti-gD/UCHT1.v9 TDB (bispecific antibody)
target cell killing with the truncated FcRH5 construct, EC50 [1]: 0.19 nM

B1: h7D8.L1H2 (antibody)
heavy chain: EVQLVESGGGLVQPGGSLRLSCAVSGIDLSSYAMGWVRQAPGKGLEWIGTIGTGGTPYYASWAKGRFTISKDSSKNTVYLQMNSLRAEDTAVYFCARDMYTGSIYYDMWGQGTLVTVSS
light chain: DAQLTQSPSSLSASVGDRVTITCQSSQSVFNNAQLSWYQQKPGKPPKLLIYDTSNLASGVPSRFSGSGSGTDFTLTISSLQPEDFATYYCLGAYTDDADNAFGQGTKVEIK
notes: humanized, rabbit-derived anti-FcRH5 antibody; The sheet prints h7D8.L1H2* with an unexplained asterisk; also called hu7D8.L1H2; Hu7D8.L1H2
koff [2]: 0.00136 s⁻¹ | kon [2]: 1.08e+06 M⁻¹ s⁻¹

B2: UCHT1.v9 (antibody, V domains shown)
VH: EVQLVESGGGLVQPGGSLRLSCAASGYSFTGYTMNWVRQAPGKDLEWVALINPYKGVSTYNQKFKDRFTISVDKSKNTAYLQMNSLRAEDTAVYYCARSGYYGDSDWYFDVWGQGTLVTVSS
VL: DIQMTQSPSSLSASVGDRVTITCRASQDIRNYLNWYQQKPGKAPKLLIYYTSRLESGVPSRFSGSGSGTDYTLTISSLQPEDFATYYCQQGNTLPWTFGQGTKLELK
notes: humanized anti-CD3; also called huUCHT1.v9
Kd [3]: 2.5 nM

B3: bis-Fab D (bispecific antibody, V domains shown)
VH 1: EVQLVESGPGLVKPSETLSLTCTVSGFSLTRFGVHWVRQPPGKGLEWLGVIWRGGSTDYNAAFVSRLTISKDNSKNQVSLKLSSVTAADTAVYYCSNHYYGSSDYALDNWGQGTLVTVSS
VL 1: DIQMTQSPSSLSASVGDRVTITCKASQDVRNLVVWFQQKPGKAPKLLIYSGSYRYSGVPSRFSGSGSGTDFTLTISSLQPEDFATYYCQQHYSPPYTFGQGTKVEIK
VH 2: EVQLVQSGAEVKKPGASVKVSCKASGFTFTSYYIHWVRQAPGQGLEWIGWIYPENDNTKYNEKFKDRVTITADTSTSTAYLELSSLRSEDTAVYYCARDGYSRYYFDYWGQGTLVTVSS
VL 2: DIVMTQSPDSLAVSLGERATICCKSSQSLLNSRTRKNYLAWYQQKPGQSPKLLIYWTSTRKSGVPDRFSGSGSGTDFTLTISSLQAEDVAVYYCKQSFILRTFGQGTKVEIK
notes: bis-Fab: 1G7.v85 Fab (LC A149C, constant part) crosslinked to 38E4.v1 Fab (LC N22C)
EC50 (read off the curve) [4]: ~7 ng/mL | EC50 (read off the curve) [5]: ~10 ng/mL

B4: 40G5c (antibody, V domains shown)
VH: EVQLVQSGAEVKKPGASVKVSCKASGYTFTNYYIHWVRQAPGQGLEWIGWIYPGDGNTKYNEKFKGRATLTADTSTSTAYLELSSLRSEDTAVYYCARDSYSNYYFDYWGQGTLVTVSS
VL: DIVMTQSPDSLAVSLGERATINCKSSQSLLNSRTRKNYLAWYQQKPGQPPKLLIYWASTRESGVPDRFSGSGSGTDFTLTISSLQAEDVAVYYCTQSFILRTFGQGTKVEIK
notes: humanized anti-CD3ε; also called hu40G5c
EC50 [6]: 13 nM | Kd [7]: 51 nM

B5: 38E4.v1 (antibody, V domains shown)
VH: EVQLVQSGAEVKKPGASVKVSCKASGFTFTSYYIHWVRQAPGQGLEWIGWIYPENDNTKYNEKFKDRVTITADTSTSTAYLELSSLRSEDTAVYYCARDGYSRYYFDYWGQGTLVTVSS
VL: DIVMTQSPDSLAVSLGERATINCKSSQSLLNSRTRKNYLAWYQQKPGQSPKLLIYWTSTRKSGVPDRFSGSGSGTDFTLTISSLQAEDVAVYYCKQSFILRTFGQGTKVEIK
notes: humanized anti-CD3ε; also called anti-CD3 arm 38E4.v1
EC50 [6]: 1 nM | Kd [7]: 0.5 nM

B6: hu1G7.v1 with heavy chain L29T and S56T (antibody, V domains shown)
VH: EVQLVESGPGLVKPSETLSLTCTVSGFSTTRFGVHWVRQPPGKGLEWLGVIWRGGTTDYNAAFMSRLTISKDNSKNQVSLKLSSVTAADTAVYYCSNHYYGSSDYALDNWGQGTLVTVSS
VL: DIQMTQSPSSLSASVGDRVTITCKASQDVSNIVVWFQQKPGKSPKLLIYSASYRYTGVPSRFSGSGSGTDFTLTISSLQPEDFATYYCQQHYSSPYTFGQGTKVEIK
notes: also called L29T/S56T double mutant
average fold improvement in affinity [8]: 1.2 fold

B7: F(ab′)2 A (bispecific antibody, V domains shown)
VH 1: EVQLVESGPGLVKPSETLSLTCTVSGFSLTRFGVHWVRQPPGKGLEWLGVIWRGGSTDYNAAFVSRLTISKDNSKNQVSLKLSSVTAADTAVYYCSNHYYGSSDYALDNWGQGTLVTVSS
VL 1: DIQMTQSPSSLSASVGDRVTITCKASQDVRNLVVWFQQKPGKAPKLLIYSGSYRYSGVPSRFSGSGSGTDFTLTISSLQPEDFATYYCQQHYSPPYTFGQGTKVEIK
VH 2: EVQLVQSGAEVKKPGASVKVSCKASGFTFTSYYIHWVRQAPGQGLEWIGWIYPENDNTKYNEKFKDRVTITADTSTSTAYLELSSLRSEDTAVYYCARDGYSRYYFDYWGQGTLVTVSS
VL 2: DIVMTQSPDSLAVSLGERATINCKSSQSLLNSRTRKNYLAWYQQKPGQSPKLLIYWTSTRKSGVPDRFSGSGSGTDFTLTISSLQAEDVAVYYCKQSFILRTFGQGTKVEIK
EC50 (read off the curve) [4]: ~0.7 ng/mL | EC50 (read off the curve) [5]: ~50 ng/mL

B8: hu1G7.v93/38E4.v1 TDB (bispecific antibody, V domains shown)
VH 1: EVQLVESGPGLVKPSETLSLTCTVSGFSTTRFGVHWVRQPPGKGLEWLGVIWRGGSTDYNAAFVSRLTISKDNSKNQVSLKLSSVTAADTAVYYCSNHYYGSPDYALDNWGQGTLVTVSS
VL 1: DIQMTQSPSSLSASVGDRVTITCKASQDVSNLVVWFQQKPGKAPKLLIYSGSYRYSGVPSRFSGSGSGTDFTLTISSLQPEDFATYYCQQHYSPPYTFGQGTKVEIK
VH 2: EVQLVQSGAEVKKPGASVKVSCKASGFTFTSYYIHWVRQAPGQGLEWIGWIYPENDNTKYNEKFKDRVTITADTSTSTAYLELSSLRSEDTAVYYCARDGYSRYYFDYWGQGTLVTVSS
VL 2: DIVMTQSPDSLAVSLGERATINCKSSQSLLNSRTRKNYLAWYQQKPGQSPKLLIYWTSTRKSGVPDRFSGSGSGTDFTLTISSLQAEDVAVYYCKQSFILRTFGQGTKVEIK
notes: knob-into-hole TDB; also called 1G7.v93 TDB
Kd [9]: 1.1 nM | Kd [10]: 8.1 nM | Kd [11]: 8.08 nM | koff [11]: 0.000417 s⁻¹ | kon [11]: 51600 M⁻¹ s⁻¹ | koff [12]: 0.000421 s⁻¹ | kon [12]: 395000 M⁻¹ s⁻¹

B9: 38E4.v11 (antibody, V domains shown)
VH: EVQLVQSGAEVKKPGASVKVSCKASGFTFTSYYIHWVRQAPGQGLEWIGWIYPENDNTKYNEKFKDRVTITADTSTSTAYLELSSLRSEDTAVYYCARDGYSRYYFDYWGQGTLVTVSS
VL: DIVMTQSPDSLAVSLGERATINCKSSQSLLNSRTRKNYLAWYQQKPGQSPKLLIYWTSTRKSGVPDRFSGSGSGTDFTLTISSLQAEDVAVYYCTQSFILRTFGQGTKVEIK
notes: humanized anti-CD3ε
EC50 [6]: 0.05 nM
